Measured values: patent publication US20130236458A1 (AbbVie / Abbott, published 2013)

T1: Recombinant Human IL-17 (human, UniProt Q16552 20-155, limits assumed)
T1 sequence (looked up): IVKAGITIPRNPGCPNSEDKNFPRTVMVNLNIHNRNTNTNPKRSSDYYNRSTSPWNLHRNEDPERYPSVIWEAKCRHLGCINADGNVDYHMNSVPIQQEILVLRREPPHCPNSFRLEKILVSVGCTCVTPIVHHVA

B1: DVD2149 (bispecific antibody)
VH: EVQLVQSGAEVKKPGSSVKVSCKASGYTFTDYEIHWVRQAPGQGLEWMGVNDPESGGTFYNQKFDGRVTLTADESTSTAYMELSSLRSEDTAVYYCTRYSKWDSFDGMDYWGQGTTVTVSSASTKGPEVTLRESGPGLVKPTQTLTLTCTLYGFSLSTSDMGVDWIRQPPGKGLEWLAHIWWDDVKRYNPALKSRLTISKDTSKNQVVLKLTSVDPVDTATYYCARTVSSGYIYYAMDYWGQGTLVTVSS
VL: DIQMTQSPSSLSASVGDRVTITCRASSGIISYIDWFQQKPGKAPKRLIYATFDLASGVPSRFSGSGSGTDYTLTISSLQPEDFATYYCRQVGSYPETFGQGTKLEIKRTVAAPDIQMTQSPSSLSASVGDRVTISCRASQDIRNYLNWYQQKPGKAPKLLIFYTSKLHSGVPSRFSGSGSGTDYTLTISSLQPEDIATYYCQQGLTPPLTFGGGTKVEIKR
B2: DVD2170 (bispecific antibody)
VH: EVQLVQSGAEVKKPGASVKVSCKASGYTFTTYGVSWVRQAPGQGLEWMGEIYPGNYNTYYNEKFRGRVTMTTDTSTSTAYMELRSLRSDDTAVYYCARWRTSYFSDYGYFDYWGQGTTVTVSSASTKGPSVFPLAPEVQLVQSGAEVKKPGSSVKVSCKASGYTFTDYEIHWVRQAPGQGLEWMGVNDPESGGTFYNQKFDGRVTLTADESTSTAYMELSSLRSEDTAVYYCTRYSKWDSFDGMDYWGQGTTVTVSS
VL: DVVMTQSPLSLPVTLGQPASISCRSSQSLVHSHGNTYLHWYQQRPGQSPRLLIYTVSNRFSGVPDRFSGSGSGTDFTLKISRVEAEDVGVYYCSQSTHVPYTFGGGTKVEIKRTVAAPDIQMTQSPSSLSASVGDRVTITCRASSGIISYIDWFQQKPGKAPKRLIYATFDLASGVPSRFSGSGSGTDYTLTISSLQPEDFATYYCRQVGSYPETFGQGTKLEIKR
B3: DVD2180 (bispecific antibody)
VH: EVQLVQSGAEVKKPGASVKVSCKASGYTFTTYGVSWVRQAPGQGLEWMGEIYPGNYNTYYNEKFRGRVTMTTDTSTSTAYMELRSLRSDDTAVYYCARWRTSYFSDYGYFDYWGQGTTVTVSSASTKGPEVQLVQSGAEVKKPGESVKISCKASGGSFRSYGISWVRQAPGQGLEWMGGITHFFGITDYAQKFQGRVTITADESTTTAYMELSGLTSDDTAVYYCAREPNDFWNGYYDTHDFDSWGQGTTVTVSS
VL: DVVMTQSPLSLPVTLGQPASISCRSSQSLVHSHGNTYLHWYQQRPGQSPRLLIYTVSNRFSGVPDRFSGSGSGTDFTLKISRVEAEDVGVYYCSQSTHVPYTFGGGTKVEIKRTVAAPSVFIFPPEIVLTQSPDFQSVTPKEKVTITCRASQNIGSELHWYQQKPDQSPKLLIKYASHSISGVPSRFSGSGSGTDFTLTINGLEAEDAATYYCHQSDTLPHTFGQGTKVDIKR
B4: DVD2169 (bispecific antibody)
VH: EVQLVQSGAEVKKPGSSVKVSCKASGYTFTDYEIHWVRQAPGQGLEWMGVNDPESGGTFYNQKFDGRVTLTADESTSTAYMELSSLRSEDTAVYYCTRYSKWDSFDGMDYWGQGTTVTVSSASTKGPEVQLVQSGAEVKKPGASVKVSCKASGYTFTTYGVSWVRQAPGQGLEWMGEIYPGNYNTYYNEKFRGRVTMTTDTSTSTAYMELRSLRSDDTAVYYCARWRTSYFSDYGYFDYWGQGTTVTVSS
VL: DIQMTQSPSSLSASVGDRVTITCRASSGIISYIDWFQQKPGKAPKRLIYATFDLASGVPSRFSGSGSGTDYTLTISSLQPEDFATYYCRQVGSYPETFGQGTKLEIKRTVAAPSVFIFPPDVVMTQSPLSLPVTLGQPASISCRSSQSLVHSHGNTYLHWYQQRPGQSPRLLIYTVSNRFSGVPDRFSGSGSGTDFTLKISRVEAEDVGVYYCSQSTHVPYTFGGGTKVEIKR
B5: DVD2176 (bispecific antibody)
VH: EVQLVQSGAEVKKPGASVKVSCKASGYTFTTYGVSWVRQAPGQGLEWMGEIYPGNYNTYYNEKFRGRVTMTTDTSTSTAYMELRSLRSDDTAVYYCARWRTSYFSDYGYFDYWGQGTTVTVSSASTKGPSVFPLAPEVQLVQSGAEVKKPGSSVKVSCKASGGSFGGYGIGWVRQAPGQGLEWMGGITPFFGFADYAQKFQGRVTITADESTTTAYMELSGLTSDDTAVYYCARDPNEFWNGYYSTHDFDSWGQGTTVTVSS
VL: DVVMTQSPLSLPVTLGQPASISCRSSQSLVHSHGNTYLHWYQQRPGQSPRLLIYTVSNRFSGVPDRFSGSGSGTDFTLKISRVEAEDVGVYYCSQSTHVPYTFGGGTKVEIKRTVAAPEIVLTQSPDFQSVTPKEKVTITCRASQDIGSELHWYQQKPDQPPKLLIKYASHSTSGVPSRFSGSGSGTDFTLTINGLEAEDAGTYYCHQTDSLPYTFGPGTKVDIKR
B6: DVD2182 (bispecific antibody)
VH: EVQLVQSGAEVKKPGASVKVSCKASGYTFTTYGVSWVRQAPGQGLEWMGEIYPGNYNTYYNEKFRGRVTMTTDTSTSTAYMELRSLRSDDTAVYYCARWRTSYFSDYGYFDYWGQGTTVTVSSASTKGPSVFPLAPEVQLVQSGAEVKKPGESVKISCKASGGSFRSYGISWVRQAPGQGLEWMGGITHFFGITDYAQKFQGRVTITADESTTTAYMELSGLTSDDTAVYYCAREPNDFWNGYYDTHDFDSWGQGTTVTVSS
VL: DVVMTQSPLSLPVTLGQPASISCRSSQSLVHSHGNTYLHWYQQRPGQSPRLLIYTVSNRFSGVPDRFSGSGSGTDFTLKISRVEAEDVGVYYCSQSTHVPYTFGGGTKVEIKRTVAAPEIVLTQSPDFQSVTPKEKVTITCRASQNIGSELHWYQQKPDQSPKLLIKYASHSISGVPSRFSGSGSGTDFTLTINGLEAEDAATYYCHQSDTLPHTFGQGTKVDIKR
B7: DVD2178 (bispecific antibody)
VH: EVQLVQSGAEVKKPGASVKVSCKASGYTFTTYGVSWVRQAPGQGLEWMGEIYPGNYNTYYNEKFRGRVTMTTDTSTSTAYMELRSLRSDDTAVYYCARWRTSYFSDYGYFDYWGQGTTVTVSSASTKGPEVQLVQSGAEVKKPGESVKISCKASGGSFRSYGISWVRQAPGQGLEWMGGITHFFGITDYAQKFQGRVTITADESTTTAYMELSGLTSDDTAVYYCAREPNDFWNGYYDTHDFDSWGQGTTVTVSS
VL: DVVMTQSPLSLPVTLGQPASISCRSSQSLVHSHGNTYLHWYQQRPGQSPRLLIYTVSNRFSGVPDRFSGSGSGTDFTLKISRVEAEDVGVYYCSQSTHVPYTFGGGTKVEIKRTVAAPEIVLTQSPDFQSVTPKEKVTITCRASQNIGSELHWYQQKPDQSPKLLIKYASHSISGVPSRFSGSGSGTDFTLTINGLEAEDAATYYCHQSDTLPHTFGQGTKVDIKR
B8: DVD2148 (bispecific antibody)
VH: EVTLRESGPGLVKPTQTLTLTCTLYGFSLSTSDMGVDWIRQPPGKGLEWLAHIWWDDVKRYNPALKSRLTISKDTSKNQVVLKLTSVDPVDTATYYCARTVSSGYIYYAMDYWGQGTLVTVSSASTKGPEVQLVQSGAEVKKPGSSVKVSCKASGYTFTDYEIHWVRQAPGQGLEWMGVNDPESGGTFYNQKFDGRVTLTADESTSTAYMELSSLRSEDTAVYYCTRYSKWDSFDGMDYWGQGTTVTVSS
VL: DIQMTQSPSSLSASVGDRVTISCRASQDIRNYLNWYQQKPGKAPKLLIFYTSKLHSGVPSRFSGSGSGTDYTLTISSLQPEDIATYYCQQGLTPPLTFGGGTKVEIKRTVAAPDIQMTQSPSSLSASVGDRVTITCRASSGIISYIDWFQQKPGKAPKRLIYATFDLASGVPSRFSGSGSGTDYTLTISSLQPEDFATYYCRQVGSYPETFGQGTKLEIKR
B9: DVD2150 (bispecific antibody)
VH: EVTLRESGPGLVKPTQTLTLTCTLYGFSLSTSDMGVDWIRQPPGKGLEWLAHIWWDDVKRYNPALKSRLTISKDTSKNQVVLKLTSVDPVDTATYYCARTVSSGYIYYAMDYWGQGTLVTVSSASTKGPEVQLVQSGAEVKKPGSSVKVSCKASGYTFTDYEIHWVRQAPGQGLEWMGVNDPESGGTFYNQKFDGRVTLTADESTSTAYMELSSLRSEDTAVYYCTRYSKWDSFDGMDYWGQGTTVTVSS
VL: DIQMTQSPSSLSASVGDRVTISCRASQDIRNYLNWYQQKPGKAPKLLIFYTSKLHSGVPSRFSGSGSGTDYTLTISSLQPEDIATYYCQQGLTPPLTFGGGTKVEIKRTVAAPSVFIFPPDIQMTQSPSSLSASVGDRVTITCRASSGIISYIDWFQQKPGKAPKRLIYATFDLASGVPSRFSGSGSGTDYTLTISSLQPEDFATYYCRQVGSYPETFGQGTKLEIKR
B10: DVD2184 (bispecific antibody)
VH: EVQLVQSGAEVKKPGASVKVSCKASGYTFTSYWMHWVRQAPGQGLEWIGNINPKGGSNIYNEKFQGRVTMTRDTSISTAYMELSRLRSDDTAVYYCARLDYFGDSFDLWGQGTTVTVSSASTKGPEVQLVQSGAEVKKPGSSVKVSCKASGYTFTDYEIHWVRQAPGQGLEWMGVNDPESGGTFYNQKFDGRVTLTADESTSTAYMELSSLRSEDTAVYYCTRYSKWDSFDGMDYWGQGTTVTVSS
VL: DIQMTQSPSSLSASVGDRVTITCRASQGIRNYLNWYQQKPGKAPKLLIYYASNLEVGVPSRFSGSGSGTDYTLTISSLQPEDFATYYCQQDNRFPYTFGGGTKVEIKRTVAAPDIQMTQSPSSLSASVGDRVTITCRASSGIISYIDWFQQKPGKAPKRLIYATFDLASGVPSRFSGSGSGTDYTLTISSLQPEDFATYYCRQVGSYPETFGQGTKLEIKR

Experiments:
Recombinant Human IL-13 = Recombinant Human IL-13 (human, UniProt P35225 35-146, limits assumed); experiment: cell-based or functional assay
Recombinant Human IL-17 = target: T1, Recombinant Human IL-17; experiment: cell-based or functional assay

Sequence of Recombinant Human IL-13 (P35225 35-146 limits assumed): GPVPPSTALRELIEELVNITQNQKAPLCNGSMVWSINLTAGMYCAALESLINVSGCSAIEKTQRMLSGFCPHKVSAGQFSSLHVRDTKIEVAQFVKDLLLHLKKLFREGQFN

Binder | C-Terminal VD IL13 Neutralization Assay IC50 (Recombinant Human IL-13) [nM] | N-Terminal VD IL17 Neutralization Assay IC50 (Recombinant Human IL-17) [nM] | N-Terminal VD IL13 Neutralization Assay IC50 (Recombinant Human IL-13) [nM] | C-Terminal VD IL17 Neutralization Assay IC50 (Recombinant Human IL-17) [nM]
B1 | 1.43 | 0.0028 | – | –
B2 | – | – | 0.106 | 0.0053
B3 | – | – | 0.091 | 0.0567
B4 | 0.309 | 0.0021 | – | –
B5 | – | – | 0.106 | 0.116
B6 | – | – | 0.077 | 0.266
B7 | – | – | 0.088 | 0.691
B8 | – | – | 0.054 | 0.0116
B9 | – | – | 0.099 | 0.004
B10 | – | – | 0.121 | 0.405
